Values joined by “and” are separate entries in the source; they are usually repeats but may differ in a detail not shown here. Identical values can stand only once.
Target: the molecule itself
Assay: cryo-EM structure

B1: HMPV nucleoprotein N, full length, strain NL1-00 (A1), RNA-bound oligomers (N-RNA) (natural protein, UniProt Q91F57 1-394, looked up)
chain: MSLQGIHLSDLSYKHAILKESQYTIKRDVGTTTAVTPSSLQQEITLLCGEILYAKHADYKYAAEIGIQYISTALGSERVQQILRNSGSEVQVVLTRTYSLGKIKNNKGEDLQMLDIHGVEKSWVEEIDKEARKTMATLLKESSGNIPQNQRPSAPDTPIILLCVGALIFTKLASTIEVGLETTVRRANRVLSDALKRYPRMDIPKIARSFYDLFEQKVYHRSLFIEYGKALGSSSTGSKAESLFVNIFMQAYGAGQTMLRWGVIARSSNNIMLGHVSVQAELKQVTEVYDLVREMGPESGLLHLRQSPKAGLLSLANCPNFASVVLGNASGLGIIGMYRGRVPNTELFSAAESYAKSLKESNKINFSSLGLTDEEKEAAEHFLNVSDDSQNDYE
stoichiometry N: 10 protomers and 11 protomers and 12 protomers and ≥ 12 protomers

— publication doi:10.1101/2023.06.10.544460 (bioRxiv, 2023)
